Publication PMC3043148 (Biochemistry, 2011)
Positions count from the first letter of the chain named. Names may count otherwise. Where two headings read alike, the source gives them in different places.

B1: human adenylosuccinate lyase (ASL), wild type, His-tag (enzyme)
chain: MAAGGDHGSPDSYRSPLASRYASPEMCFVFSDRYKFRTWRQLWLWLAEAEQTLGLPITDEQIQEMKSNLENIDFKMAAEEEKRLRHDVMAHVHTFGHCCPKAAGIIHLGATSCYVGDNTDLIILRNALDLLLPKLARVISRLADFAKERASLPTLGFTHFQPAQLTTVGKRCCLWIQDLCMDLQNLKRVRDDLRFRGVKGTTGTQASFLQLFEGDDHKVEQLDKMVTEKAGFKRAFIITGQTYTRKVDIEVLSVLASLGASVHKICTDIRLLANLKEMEEPFEKQQIGSSAMPYKRNPMRSERCCSLARHLMTLVMDPLQTASVQWFERTLDDSANRRICLAEAFLTADTILNTLQNISEGLVVYPKVIERRIRQELPFMATENIIMAMVKAGGSRQDCHEKIRVLSQQAASVVKQEGGDNDLIERIQVDAYFSPIHSQLDHLLDPSSFTGRASQQVQRFLEEEVYPLLKPYESVMKVKAE
B2: human adenylosuccinate lyase (ASL) R396H, His-tag (enzyme)
chain: B1 chain with R396H
B3: human adenylosuccinate lyase (ASL) R396C, His-tag (enzyme)
chain: B1 chain with R396C
B4: human adenylosuccinate lyase (ASL) L311V, His-tag (enzyme)
chain: B1 chain with L311V
B5: human adenylosuccinate lyase (ASL) R194C, His-tag (enzyme)
chain: B1 chain with R194C
B6: human adenylosuccinate lyase (ASL), wild type, non-His-tag (enzyme)
chain: B1 chain
B7: human adenylosuccinate lyase (ASL) R396H, non-His-tag (enzyme)
chain: B1 chain with R396H
B8: human adenylosuccinate lyase (ASL) R396C, non-His-tag (enzyme)
chain: B1 chain with R396C

Tests used:
AUC [1] = molecular target: the molecule itself; test: AUC
AUC [2] = molecular target: the molecule itself; test: AUC; remark: listed apart in the source
AUC [3] = molecular target: the molecule itself; test: AUC; remark: listed apart in the source
[4] = molecular target: B1; test: AUC
[5] = molecular target: B1; test: in vitro subunit hybridisation with separation on Ni-NTA
AUC [6] = molecular target: the molecule itself; test: AUC; remark: listed apart in the source
[7] = molecular target: B1; test: AUC; remark: listed apart in the source
[8] = molecular target: B4; test: AUC
[9] = molecular target: B4; test: AUC; remark: listed apart in the source
[10] = molecular target: B4; test: in vitro subunit hybridisation with separation on Ni-NTA
[11] = molecular target: B5; test: AUC
[12] = molecular target: B5; test: AUC; remark: listed apart in the source
[13] = molecular target: B5; test: in vitro subunit hybridisation with separation on Ni-NTA

Binder: B1
- stoichiometry N (AUC [1]): 4
- percent tetramer (M-Tet model) (AUC [2]): 77%

Binder: B2
- stoichiometry N (AUC [1]): 4

Binder: B3
- stoichiometry N (AUC [1]): 4
- percent tetramer (M-Tet model) (AUC [2]): 78%

Binder: B4
- stoichiometry N (AUC [1]): 4
- percent tetramer (M-Tet model) (AUC [2]): 68%

Binder: B5
- stoichiometry N (AUC [1]): 4
- percent tetramer (M-Tet model) (AUC [2]): 73%

Binder: B6
- percent tetramer (M-Tet model), pool 1 (AUC [3]): 68%
- percent tetramer (M-Tet model), pool 2 [4]: 73%
- percent tetramer (M-Tet model), pool 3 [4]: 75%
- subunit ratio (Non-His-tag: His-tag) by SDS-PAGE, pool 2 [5]: 1.3 non-His-tag per His-tag subunit
- subunit ratio (Non-His-tag: His-tag) by SDS-PAGE, pool 3 [5]: 3.7 His-tag per non-His-tag subunit

Binder: B7
- stoichiometry N (AUC [6]): 4
- stoichiometry N [7]: 4
- stoichiometry N [8]: 4
- percent tetramer (M-Tet model), pool 2 [4]: 73%
- percent tetramer (M-Tet model), pool 3 [4]: 72%
- percent tetramer (M-Tet model), pool 2 [9]: 74%
- percent tetramer (M-Tet model), pool 3 [9]: 74%
- subunit ratio (Non-His-tag: His-tag) by SDS-PAGE, pool 2 [5]: 1.1 non-His-tag per His-tag subunit
- subunit ratio (Non-His-tag: His-tag) by SDS-PAGE, pool 3 [5]: 1.6 His-tag per non-His-tag subunit
- subunit ratio (Non-His-tag: His-tag) by SDS-PAGE, pool 2 [10]: 1.8 non-His-tag per His-tag subunit
- subunit ratio (Non-His-tag: His-tag) by SDS-PAGE, pool 3 [10]: 1 non-His-tag per His-tag subunit

Binder: B8
- stoichiometry N (AUC [6]): 4
- stoichiometry N [7]: 4
- stoichiometry N [11]: 4
- percent tetramer (M-Tet model), pool 2 [4]: 72%
- percent tetramer (M-Tet model), pool 3 [4]: 70%
- percent tetramer (M-Tet model), pool 2 [12]: 78%
- percent tetramer (M-Tet model), pool 3 [12]: 80%
- subunit ratio (Non-His-tag: His-tag) by SDS-PAGE, pool 2 [5]: 1.2 non-His-tag per His-tag subunit
- subunit ratio (Non-His-tag: His-tag) by SDS-PAGE, pool 3 [5]: 2.3 His-tag per non-His-tag subunit
- subunit ratio (Non-His-tag: His-tag) by SDS-PAGE, pool 2 [13]: 1.2 non-His-tag per His-tag subunit
- subunit ratio (Non-His-tag: His-tag) by SDS-PAGE, pool 3 [13]: 3.2 His-tag per non-His-tag subunit
